Results as given in FireProtDB (doi:10.1111/j.1432-1033.1988.tb14214.x).

B1: Protein S100-G, P02633 (parent)
chain: MSAKKSPEELKGIFEKYAAKEGDPNQLSKEELKLLLQTEFPSLLKGPSTLDELFEELDKNGDGEVSFEEFQVLVKKISQ

Variants of: B1
Conditions: Bos taurus; pH 7.1; 25 °C; Urea; CD; PIPES 20 mM; reversible: yes; structure 1IGV; whole UniProt chain shown

**Q.** For MSAKKSPEELKGIFEKFAAKEGDPNQLSKEELKLLLQTEFPSLLKGPSTLDELFEELDKNGDGEVSFEEFQVLVKKISQ [Y17F], which “ddG of mutation (higher = less stable)” value is on record?
**A.** 1.19 kcal/mol

**Q.** What about the denaturant m value of the same variant?
**A.** 0.89 kcal/mol/M

**Q.** What about the “denaturant midpoint (higher = more stable)” value of the same variant?
**A.** 4.1 M

**Q.** And the unfolding free energy?
**A.** 3.59 kcal/mol

**Q.** What does the source list for MSAKKSPEELKGIFEKYAAKQGDPNQLSKEELKLLLQTEFPSLLKGPSTLDELFEELDKNGDGEVSFEEFQVLVKKISQ [E21Q]?
**A.** ddG of mutation (higher = less stable): -0.48 kcal/mol; denaturant m value: 0.91 kcal/mol/M; denaturant midpoint (higher = more stable): 5.6 M; unfolding free energy: 5.26 kcal/mol

**Q.** For MSAKKSPEELKGIFEKYAAKEGDGNQLSKEELKLLLQTEFPSLLKGPSTLDELFEELDKNGDGEVSFEEFQVLVKKISQ [P24G], which “ddG of mutation (higher = less stable)” value is on record?
**A.** 1.19 kcal/mol

**Q.** And the denaturant m value?
**A.** 0.79 kcal/mol/M

**Q.** What about the “denaturant midpoint (higher = more stable)” value of the same variant?
**A.** 4.7 M

**Q.** And the unfolding free energy?
**A.** 3.59 kcal/mol
